Assay results from patent US20240301076A1 (CEPHALON, published 2024).
Values joined by “and” are separate entries in the source; they are usually repeats but may differ in a detail not shown here. Equal values may be shown once. Read-outs that look alike come from different tables or passages of the source.

Key:
[1] = biological target: T1, human CXCR1 (human, UniProt P25024 1-350); test: flow cytometry, transfected Expi293F cells
T1 sequence: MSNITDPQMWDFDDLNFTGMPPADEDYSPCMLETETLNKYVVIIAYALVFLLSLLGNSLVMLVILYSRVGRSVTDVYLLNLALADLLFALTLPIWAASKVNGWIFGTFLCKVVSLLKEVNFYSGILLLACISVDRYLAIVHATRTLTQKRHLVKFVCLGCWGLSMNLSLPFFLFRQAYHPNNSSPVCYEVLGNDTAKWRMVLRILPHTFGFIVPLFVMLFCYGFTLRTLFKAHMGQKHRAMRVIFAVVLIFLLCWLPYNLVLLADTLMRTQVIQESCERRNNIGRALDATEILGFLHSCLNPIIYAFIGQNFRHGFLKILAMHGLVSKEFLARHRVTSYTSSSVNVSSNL
Protocol: (§1) Harvested cells were resuspended in FACS buffer (1×PBS+0.5% (w/v) bovine serum albumin (BSA)+2 mM EDTA pH 7.2). Approximately 2×10⁵ cells were added per well in a 96-well round-bottomed plate. Cells were pelleted by centrifugation at 400 g for 5 mins at 4° C. and supernatants discarded. 25 μL of each test antibody or control antibody was added to the cells and incubated for 30 minutes at 4° C. Cells were washed twice in 100 μL FACS buffer followed by centrifugation at 400 g for 5 mins at 4° C.
(§2) For detection, 50 μL of secondary antibody (Table 2) was added to relevant samples. Commercially available antibodies that bound to transfected CXCR family members were used as positive controls to ensure that the cells were expressing the receptors. Cells were washed twice in 200 μL of FACS buffer followed by centrifugation at 400 g for 5 mins at 4° C. Before sample acquisition, cells were resuspended in 100 μL of FACS buffer. Samples were acquired using the high throughput sampler on a FACSCanto™ II cytometer (Beckton-Dickinson).
(§3) These antibody variable regions were then generated by gene synthesis and subcloned into mammalian expression vectors as described in General Methods. Antibodies were produced by co-expression of heavy and light chain plasmids in Expi293F™ cells and purified by protein A column chromatography as described in General Methods. Where several heavy and/or light chains were identified from the same hybridoma cells, each heavy chain was paired with each light chain and the resulting antibodies given suffix a, b, c, etc. Purified antibodies were desalted into Sorensen's PBS pH 5.8 and tested by flow cytometry for binding to Expi293F™ cells transfected with human CXCR2 or human CXCR1 and mock transfected Expi293F™ cells.

[2] = biological target: T2, human CXCR2 (human, UniProt P25025 1-360); test: flow cytometry, CXCR2-transfected Expi293F cells
T2 construct: also called CXC chemokine receptor 2; hCXCR2
T2 sequence: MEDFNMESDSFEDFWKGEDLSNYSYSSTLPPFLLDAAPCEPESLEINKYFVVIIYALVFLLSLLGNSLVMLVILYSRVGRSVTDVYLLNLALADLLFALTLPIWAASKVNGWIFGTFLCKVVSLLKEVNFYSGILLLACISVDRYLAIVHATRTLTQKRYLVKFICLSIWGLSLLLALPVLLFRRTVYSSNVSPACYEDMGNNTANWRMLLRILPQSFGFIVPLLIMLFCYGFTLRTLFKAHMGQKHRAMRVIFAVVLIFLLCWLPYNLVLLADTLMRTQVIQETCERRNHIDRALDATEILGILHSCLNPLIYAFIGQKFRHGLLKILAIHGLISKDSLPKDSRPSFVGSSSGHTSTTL
Protocol: as §1, §2
A further six heavy chain combinational variants comprising four or more amino acid substitutions were produced as provided in Table 12. […] Each heavy chain was co-expressed with light chain c (SEQ ID NO:110) to produce an antibody variant. Antibodies were purified and tested for CXCR2 binding activity as described in General Methods.

[3] = biological target: T2, human CXCR2; test: flow cytometry, CXCR2-transfected Expi293F cells; remark: listed apart in the source
Protocol: as §1, §2
Each heavy chain was co-expressed with each light chain to produce a sequence optimized antibody variant. Antibodies were purified and tested for CXCR2 binding activity as described in General Methods.

[4] = biological target: T3, cynomolgus monkey CXCR2 (cynomolgus monkey, UniProt Q28519 3-353 (rhesus entry)); test: flow cytometry, native CXCR2 on cynomolgus PBMC preparations
T3 construct: native on cynomolgus blood cells in the entries below; also called cynomolgus CXCR2
T3 chain: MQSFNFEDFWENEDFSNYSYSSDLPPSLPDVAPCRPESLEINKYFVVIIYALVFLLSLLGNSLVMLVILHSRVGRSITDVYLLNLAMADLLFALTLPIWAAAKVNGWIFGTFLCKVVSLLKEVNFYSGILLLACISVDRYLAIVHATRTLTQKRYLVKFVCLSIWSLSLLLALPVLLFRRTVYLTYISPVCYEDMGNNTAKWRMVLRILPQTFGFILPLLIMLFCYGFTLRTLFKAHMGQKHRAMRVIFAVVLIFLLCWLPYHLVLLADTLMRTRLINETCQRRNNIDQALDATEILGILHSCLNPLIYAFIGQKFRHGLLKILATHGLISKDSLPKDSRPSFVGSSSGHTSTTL
Protocol: Whole human buffy coat, PBMC enriched fractions prepared from human peripheral blood buffy coat or cynomolgus monkey whole blood was used for analysis of antibody binding activity by flow cytometry. Briefly, blood was untreated or diluted 1:1 in sterile filtered room temperature phosphate-buffered saline (PBS). 30 mL samples were layered over 15 mL Lymphoprep™ (Stem Cell Technologies, cat #07851). Peripheral blood mononuclear cells (PBMC) were enriched by room temperature centrifugation at 700 g for 30 minutes with no braking. The PBMC layer was isolated and cells washed in PBS containing 2 mM EDTA with low speed centrifugation at 200 g, to remove platelet contamination. Whole blood or PBMC enriched cell fractions were resuspended in red blood cell lysing solution (BioLegend, 420301). Viable cell counts were determined and cells resuspended at 1×10⁷ cells per mL in FACS buffer (1×PBS+0.5% (w/v) BSA+2 mM EDTA pH 7.2).
Flow cytometry binding assays using whole blood or PBMC enriched preparations: Binding assays to detect CXCR2 on blood neutrophil populations using test antibodies were performed essentially as described for assays using transiently transfected Expi293F™ cells. […] Matched isotype control antibodies were included for comparison. […] Neutrophil populations were identified by characteristic granularity and size, and positive binding of commercially available antibodies against CD10 (Biolegend, clone Hl10a, catalogue number 312204). Cells were washed and fixed (BioLegend Fixation buffer, 420801) prior to analysis. The level of fluorescence on the cell surface was measured by flow cytometry.

[5] = biological target: T2, human CXCR2; test: cell-based or functional assay
[6] = biological target: T2, human CXCR2; test: cell-based or functional assay; remark: listed apart in the source
[7] = biological target: T2, human CXCR2; test: cell-based or functional assay; remark: listed apart in the source
[8] = biological target: T2, human CXCR2; test: cell-based or functional assay; remark: listed apart in the source
[9] = biological target: T2, human CXCR2; test: cell-based or functional assay; remark: listed apart in the source
[10] = biological target: T2, human CXCR2; test: cell-based or functional assay; remark: listed apart in the source
[11] = biological target: T2, human CXCR2; test: flow cytometry, transfected Expi293F cells
Protocol: as §1, §2, §3

B1: BKO-4A8 (antibody, human IgG4 S228P, lambda)
heavy: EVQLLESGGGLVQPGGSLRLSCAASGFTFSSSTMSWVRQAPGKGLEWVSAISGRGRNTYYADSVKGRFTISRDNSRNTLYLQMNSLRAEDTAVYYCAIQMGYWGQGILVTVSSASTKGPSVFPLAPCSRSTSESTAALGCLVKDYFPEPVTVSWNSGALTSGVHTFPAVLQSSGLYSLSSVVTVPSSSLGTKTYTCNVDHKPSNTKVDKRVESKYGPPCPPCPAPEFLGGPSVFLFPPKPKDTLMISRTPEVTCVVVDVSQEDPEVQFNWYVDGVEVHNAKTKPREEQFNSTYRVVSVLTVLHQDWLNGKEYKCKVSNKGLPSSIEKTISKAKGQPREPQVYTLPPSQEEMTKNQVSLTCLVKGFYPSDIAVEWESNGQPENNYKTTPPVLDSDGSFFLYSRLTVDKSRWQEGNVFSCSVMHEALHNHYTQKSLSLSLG
light: QSALTQPPSASGSPGQSVTISCIGTSSDVGGYNYVSWYQQHPDKAPKLMIYEVNKRPSGVPDRFSGSKSGNTASLTVSGLQAEDEADYYCSSYAGNNNFGVFGGGTKLTVLGQPKAAPSVTLFPPSSEELQANKATLVCLISDFYPGAVTVAWKADSSPVKAGVETTTPSKQSNNKYAASSYLSLTPEQWKSHRSYSCQVTHEGSTVEKTVAPTECS
notes: recombinant human IgG4 S228P, lambda; also called BKO-4A8 IgG4; parental BKO-4A8
Q: Does B1 bind [1]?
A: no binding

Q: And the EC50 [2]?
A: 1.58 nM and 3.82 nM

Q: What about the EC50 [3] of the same binder?
A: 0.4 nM and 0.5 nM and 0.6 nM and 0.9 nM

Q: Does B1 bind [4]?
A: binds

Q: And the “CXCL1 IC50, Tango assay” value [5]?
A: 94 nM

Q: And the “CXCL8 IC50, Tango assay” value [5]?
A: 0.66 nM

Q: And the “IC50, CXCL1, Tango assay” value [6]?
A: 0.177 nM

Q: And the “IC50, CXCL8, Tango assay” value [6]?
A: 0.112 nM

B2: BKO-4A8-101c (antibody, human IgG4 S228P, lambda, V domains shown)
VH: EVQLLESGGGLVQPGGSLRLSCAASGFTFSSSTQSWVRQPPGKGLEWVSAISGRGRSTYYADSVKGRFTISRDNSKNTLYLQMNSLRAEDTAVYYCAIQAGYWGQGILVTVSS
VL: QSALTQPPSASGSPGQSVTISCIGTSSDVGGYNYVSWYQQHPGKAPKLMIYEVSKRPSGVPDRFSGSKSGNTASLTVSGLQAEDEADYYCSSYAGSNNFGVFGGGTKLTVLG
Q: How did the “CXCL1 IC50, calcium flux” value [7] turn out when B2 was run?
A: 1.47 nM

Q: What about the EC50 [2] of the same binder?
A: 3.05 nM

Q: What about the “Max binding (MFI Percent of 4A8 WT)” value [2] of the same binder?
A: 89%

Q: And the “Max binding (MFI)” value [2]?
A: 55000 MFI

Q: And the “CXCL1 IC50, β-arrestin recruitment” value [8]?
A: 0.38 nM

Q: And the “CXCL5 IC50, β-arrestin recruitment” value [8]?
A: 0.34 nM

Q: What about the “CXCL8 IC50, β-arrestin recruitment” value [8] of the same binder?
A: 0.34 nM

Q: What about the “IC50 mean, Hu CXCL1, Tango β-arrestin” value [9] of the same binder?
A: 0.27 nM

Q: What about the “IC50 mean, Hu CXCL2, Tango β-arrestin” value [9] of the same binder?
A: 0.36 nM

Q: And the “IC50 mean, Hu CXCL3, Tango β-arrestin” value [9]?
A: 0.39 nM

Q: What about the “IC50 mean, Hu CXCL5, Tango β-arrestin” value [9] of the same binder?
A: 0.3 nM

Q: What about the “IC50 mean, Hu CXCL6, Tango β-arrestin” value [9] of the same binder?
A: 0.28 nM

Q: And the “IC50 mean, Hu CXCL7, Tango β-arrestin” value [9]?
A: 0.44 nM

Q: What about the “IC50 mean, Hu CXCL8, Tango β-arrestin” value [9] of the same binder?
A: 0.34 nM

Q: What about the “CXCL1 Fold Improvement over 4A8 WT” value [5] of the same binder?
A: 1.49 fold

Q: What about the “CXCL1 IC50, Tango assay” value [5] of the same binder?
A: 0.63 nM

Q: And the “CXCL8 Fold Improvement over 4A8 WT” value [5]?
A: 2.39 fold

Q: And the “CXCL8 IC50, Tango assay” value [5]?
A: 0.28 nM

Q: What about the “IC50 mean, Hu CXCL1, calcium flux” value [10] of the same binder?
A: 1.55 nM

Q: And the “IC50 mean, Hu CXCL2, calcium flux” value [10]?
A: 1.62 nM

Q: What about the “IC50 mean, Hu CXCL3, calcium flux” value [10] of the same binder?
A: 0.63 nM

Q: What about the “IC50 mean, Hu CXCL5, calcium flux” value [10] of the same binder?
A: 1.03 nM

Q: And the “IC50 mean, Hu CXCL6, calcium flux” value [10]?
A: 1.71 nM

Q: What about the “IC50 mean, Hu CXCL7, calcium flux” value [10] of the same binder?
A: 2.14 nM

B3: BKO-9C3_a (antibody, human IgG4 S228P, lambda, V domains shown)
VH: EVQVLESGGGLVQPGGSLRLSCAASGFTFRSYAMSWVRQAPGKGLEWVSAISGSGGSTYYADSVKGRFTISRDKSKNTLYLQMNSLRAEDTAVYYCAIQLGYWGQGTLVTVSS
VL: QSALTQPPSASGSPGQSVIISCTGTSSDVGGYNYVSWYQQHPGKVPKLMIYEVSKRPSGVPDRFSGSKSGNTASLTVSGLQAEDEADYYCTSYAGSNNFGVFGGGTKLTVLG
notes: recombinant human IgG4 S228P, lambda
Q: What does the source list for B3?
A: binding result [11]: binds; binding result [1]: no binding; binding result [4]: binds
